Experimental data published in the supplement of paper PMC10065799, “High-throughput profiling of sequence recognition by tyrosine kinases and SH2 domains using bacterial peptide display” (eLife, 2023).

Each sequence was assayed on c-Src (assay: phosphorylation enrichment, bacterial display (enrichment ratio); higher = better substrate or ligand; peptides without Tyr show the background).
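Also: 11-residue human phosphosite peptides and single-mutation variants displayed on the E. coli surface, counted by deep sequencing, each peptide's frequency after selection divided by its frequency in the unselected input library; frequency after pTyr selection over input frequency; kinase dosed for 20-30% of maximal phosphorylation in three min.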

In order of falling phosphorylation enrichment:
1. PQEVTYAQLDH [KIR3DL2_Y398]  13.6
2. RNESFYDTFST [EFCAB3_Y372]  10.5
3. DFPGIYSGFDD [POLR1C_Y33_N32I_YF]  7.13
4. PSELFYSKIGP [SMG1_Y2254_YF]  5.2
5. KSAAIYNPVIF [RHO_Y301_YF]  4.71
6. AVISVYDLVVV [PSEN1_Y256_A260V]  3.85
7. GVRTIYTIDGS [DCLK2_Y124]  1.6
8. KLPYLYDDPFS [GPX2_Y127_P126L]  0.906
9. RKKEEYKMAPY [F8_Y1990_L1994P]  0.816
10. LTFHMYADPNF [SOS1_Y618_YF]  0.755
11. IINENYDFLKV [NUP98_Y1664_G1669V_YF]  0.655
12. RLPINYTTRRI [LAMA2_Y2894_G2889R]  0.626
13. TEGNGYISFNE [LCP1_Y28_D24E]  0.573
14. DSFATYFRRVL [H2BW1_Y84]  0.532
15. VNCHQYDGLVE [ATP2A2_Y407]  0.531
16. NTEGGYCCICA [CRELD1_Y328_R329C]  0.529
17. KLIETCFSKNY [PLP1_Y50_Y50C]  0.524
18. SRASYYRKGGC [ALK_Y1283_Y1278S]  0.52
19. YGMSSYITRED [FNDC3B_Y180_T179S]  0.51
20. ILGRYYETSSI [PAX2_Y73_G76S]  0.466
21. HLWRIYFDITD [MMP27_Y307_YF]  0.462
22. ASELGYQFQAI [UROD_Y133_V134Q]  0.46
23. ISHVAYLVLGK [TRRAP_Y892_R893L]  0.454
24. VIKDKYPKVRF [APTX_Y209_A212V_YF]  0.452
25. LKGQVYILGRE [ASS1_Y359]  0.438
26. FGSSSYGGAGG [RPA2_Y14_YF]  0.43
27. GREEFYSTHPH [LRRK2_Y1402]  0.421
28. NHYKICNLCAE [PTEN_Y68_Y68C]  0.372
29. WLFFRYLPIGC [ATP2A2_Y836_A838P]  0.345

The sequences below were run against EPHB2 (UniProt P29323) in the same assay as above.
Sequence of EPHB2 (P29323 whole entry, looked up): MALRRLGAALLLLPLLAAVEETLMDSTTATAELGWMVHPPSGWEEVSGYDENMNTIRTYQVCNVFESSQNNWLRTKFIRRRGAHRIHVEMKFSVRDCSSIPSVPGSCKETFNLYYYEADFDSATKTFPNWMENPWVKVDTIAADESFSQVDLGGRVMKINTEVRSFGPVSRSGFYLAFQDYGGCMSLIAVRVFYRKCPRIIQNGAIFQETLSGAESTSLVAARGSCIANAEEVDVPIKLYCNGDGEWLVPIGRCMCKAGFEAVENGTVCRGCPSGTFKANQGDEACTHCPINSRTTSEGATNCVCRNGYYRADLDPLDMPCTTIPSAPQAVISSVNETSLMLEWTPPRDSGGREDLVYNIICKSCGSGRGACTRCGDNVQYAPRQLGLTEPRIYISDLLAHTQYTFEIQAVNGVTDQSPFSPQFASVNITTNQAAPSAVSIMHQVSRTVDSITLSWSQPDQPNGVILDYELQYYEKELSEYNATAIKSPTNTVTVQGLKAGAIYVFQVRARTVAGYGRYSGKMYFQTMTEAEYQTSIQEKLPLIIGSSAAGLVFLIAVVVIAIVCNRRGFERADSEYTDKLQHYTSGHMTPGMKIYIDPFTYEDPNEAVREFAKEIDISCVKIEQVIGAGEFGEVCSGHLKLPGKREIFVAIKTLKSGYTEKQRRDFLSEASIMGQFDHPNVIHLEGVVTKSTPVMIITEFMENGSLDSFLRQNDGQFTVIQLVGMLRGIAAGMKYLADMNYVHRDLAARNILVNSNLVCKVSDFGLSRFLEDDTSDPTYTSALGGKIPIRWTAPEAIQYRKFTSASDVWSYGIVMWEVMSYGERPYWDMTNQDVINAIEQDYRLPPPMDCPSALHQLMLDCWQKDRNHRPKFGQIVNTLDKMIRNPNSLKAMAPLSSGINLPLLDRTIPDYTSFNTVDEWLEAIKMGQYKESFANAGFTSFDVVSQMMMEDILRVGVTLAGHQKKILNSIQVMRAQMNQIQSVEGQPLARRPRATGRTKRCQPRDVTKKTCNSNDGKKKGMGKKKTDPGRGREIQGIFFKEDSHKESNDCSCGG

In order of rising phosphorylation enrichment:
1. SRASYYRKGGC [ALK_Y1283_Y1278S]  0.371
2. VIKDKYPKVRF [APTX_Y209_A212V_YF]  0.373
3. NHYKICNLCAE [PTEN_Y68_Y68C]  0.395
4. FGSSSYGGAGG [RPA2_Y14_YF]  0.401
5. YGMSSYITRED [FNDC3B_Y180_T179S]  0.452
6. ILGRYYETSSI [PAX2_Y73_G76S]  0.476
7. GREEFYSTHPH [LRRK2_Y1402]  0.482
8. ISHVAYLVLGK [TRRAP_Y892_R893L]  0.5
9. ASELGYQFQAI [UROD_Y133_V134Q]  0.5
10. GVRTIYTIDGS [DCLK2_Y124]  0.507
11. RLPINYTTRRI [LAMA2_Y2894_G2889R]  0.519
12. KSAAIYNPVIF [RHO_Y301_YF]  0.519
13. WLFFRYLPIGC [ATP2A2_Y836_A838P]  0.531
14. KLIETCFSKNY [PLP1_Y50_Y50C]  0.555
15. DFPGIYSGFDD [POLR1C_Y33_N32I_YF]  0.585
16. TEGNGYISFNE [LCP1_Y28_D24E]  0.595
17. NTEGGYCCICA [CRELD1_Y328_R329C]  0.657
18. VNCHQYDGLVE [ATP2A2_Y407]  0.659
19. DSFATYFRRVL [H2BW1_Y84]  0.677
20. HLWRIYFDITD [MMP27_Y307_YF]  0.771
21. RKKEEYKMAPY [F8_Y1990_L1994P]  0.865
22. IINENYDFLKV [NUP98_Y1664_G1669V_YF]  0.92
23. LKGQVYILGRE [ASS1_Y359]  0.949
24. PQEVTYAQLDH [KIR3DL2_Y398]  1.33
25. LTFHMYADPNF [SOS1_Y618_YF]  1.45
26. PSELFYSKIGP [SMG1_Y2254_YF]  2.08
27. AVISVYDLVVV [PSEN1_Y256_A260V]  4.03
28. KLPYLYDDPFS [GPX2_Y127_P126L]  4.17
29. RNESFYDTFST [EFCAB3_Y372]  21

What follows are sequences tested on c-Abl (mouse) in the same assay as above.

In order of rising phosphorylation enrichment:
1. GREEFYSTHPH [LRRK2_Y1402]  0.418
2. GVRTIYTIDGS [DCLK2_Y124]  0.5
3. ILGRYYETSSI [PAX2_Y73_G76S]  0.55
4. VIKDKYPKVRF [APTX_Y209_A212V_YF]  0.56
5. NHYKICNLCAE [PTEN_Y68_Y68C]  0.571
6. SRASYYRKGGC [ALK_Y1283_Y1278S]  0.585
7. ISHVAYLVLGK [TRRAP_Y892_R893L]  0.588
8. ASELGYQFQAI [UROD_Y133_V134Q]  0.596
9. RLPINYTTRRI [LAMA2_Y2894_G2889R]  0.638
10. YGMSSYITRED [FNDC3B_Y180_T179S]  0.645
11. WLFFRYLPIGC [ATP2A2_Y836_A838P]  0.657
12. IINENYDFLKV [NUP98_Y1664_G1669V_YF]  0.668
13. VNCHQYDGLVE [ATP2A2_Y407]  0.672
14. FGSSSYGGAGG [RPA2_Y14_YF]  0.677
15. TEGNGYISFNE [LCP1_Y28_D24E]  0.723
16. DSFATYFRRVL [H2BW1_Y84]  0.798
17. DFPGIYSGFDD [POLR1C_Y33_N32I_YF]  0.806
18. NTEGGYCCICA [CRELD1_Y328_R329C]  0.894
19. KLIETCFSKNY [PLP1_Y50_Y50C]  0.973
20. AVISVYDLVVV [PSEN1_Y256_A260V]  1
21. RKKEEYKMAPY [F8_Y1990_L1994P]  1.03
22. KSAAIYNPVIF [RHO_Y301_YF]  1.11
23. KLPYLYDDPFS [GPX2_Y127_P126L]  1.12
24. HLWRIYFDITD [MMP27_Y307_YF]  1.27
25. LKGQVYILGRE [ASS1_Y359]  1.47
26. LTFHMYADPNF [SOS1_Y618_YF]  1.99
27. RNESFYDTFST [EFCAB3_Y372]  2.23
28. PSELFYSKIGP [SMG1_Y2254_YF]  2.46
29. PQEVTYAQLDH [KIR3DL2_Y398]  4.39

The sequences below were run against EPHB1 (UniProt P54762) in the same assay as above.
Sequence of EPHB1 (P54762 whole entry, looked up): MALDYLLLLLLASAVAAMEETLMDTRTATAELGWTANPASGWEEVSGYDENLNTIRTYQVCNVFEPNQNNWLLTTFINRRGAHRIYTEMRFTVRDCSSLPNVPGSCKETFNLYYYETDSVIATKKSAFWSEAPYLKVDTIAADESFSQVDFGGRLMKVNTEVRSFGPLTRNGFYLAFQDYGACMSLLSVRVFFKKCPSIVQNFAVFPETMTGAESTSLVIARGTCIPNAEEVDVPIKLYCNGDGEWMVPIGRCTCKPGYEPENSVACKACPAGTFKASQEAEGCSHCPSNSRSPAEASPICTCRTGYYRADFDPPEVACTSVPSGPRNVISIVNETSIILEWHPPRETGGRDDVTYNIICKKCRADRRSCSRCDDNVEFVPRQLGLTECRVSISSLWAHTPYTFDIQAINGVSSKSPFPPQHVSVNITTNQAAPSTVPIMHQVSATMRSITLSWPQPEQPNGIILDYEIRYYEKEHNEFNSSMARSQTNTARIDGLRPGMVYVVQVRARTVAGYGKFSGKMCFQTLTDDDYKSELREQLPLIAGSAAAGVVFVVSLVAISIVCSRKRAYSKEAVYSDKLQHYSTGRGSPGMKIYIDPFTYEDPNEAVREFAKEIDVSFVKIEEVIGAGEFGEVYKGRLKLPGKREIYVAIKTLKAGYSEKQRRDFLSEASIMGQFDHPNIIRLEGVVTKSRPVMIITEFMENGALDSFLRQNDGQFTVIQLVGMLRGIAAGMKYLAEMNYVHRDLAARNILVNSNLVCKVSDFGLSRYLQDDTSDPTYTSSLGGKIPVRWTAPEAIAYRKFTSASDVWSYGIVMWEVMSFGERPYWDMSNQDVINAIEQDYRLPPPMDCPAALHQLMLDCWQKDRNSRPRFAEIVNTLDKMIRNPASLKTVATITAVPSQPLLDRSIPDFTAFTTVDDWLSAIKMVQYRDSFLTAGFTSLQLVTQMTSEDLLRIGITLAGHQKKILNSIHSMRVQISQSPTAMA

In order of falling phosphorylation enrichment:
1. RNESFYDTFST [EFCAB3_Y372]  17.3
2. AVISVYDLVVV [PSEN1_Y256_A260V]  5.61
3. KLPYLYDDPFS [GPX2_Y127_P126L]  3.22
4. PSELFYSKIGP [SMG1_Y2254_YF]  2.31
5. LTFHMYADPNF [SOS1_Y618_YF]  1.67
6. PQEVTYAQLDH [KIR3DL2_Y398]  1.3
7. HLWRIYFDITD [MMP27_Y307_YF]  1.15
8. ISHVAYLVLGK [TRRAP_Y892_R893L]  0.805
9. IINENYDFLKV [NUP98_Y1664_G1669V_YF]  0.794
10. TEGNGYISFNE [LCP1_Y28_D24E]  0.734
11. DFPGIYSGFDD [POLR1C_Y33_N32I_YF]  0.692
12. VNCHQYDGLVE [ATP2A2_Y407]  0.658
13. DSFATYFRRVL [H2BW1_Y84]  0.607
14. RKKEEYKMAPY [F8_Y1990_L1994P]  0.583
15. KLIETCFSKNY [PLP1_Y50_Y50C]  0.576
16. GVRTIYTIDGS [DCLK2_Y124]  0.563
17. KSAAIYNPVIF [RHO_Y301_YF]  0.559
18. YGMSSYITRED [FNDC3B_Y180_T179S]  0.545
19. WLFFRYLPIGC [ATP2A2_Y836_A838P]  0.529
20. ILGRYYETSSI [PAX2_Y73_G76S]  0.527
21. LKGQVYILGRE [ASS1_Y359]  0.522
22. NTEGGYCCICA [CRELD1_Y328_R329C]  0.497
23. RLPINYTTRRI [LAMA2_Y2894_G2889R]  0.433
24. FGSSSYGGAGG [RPA2_Y14_YF]  0.431
25. VIKDKYPKVRF [APTX_Y209_A212V_YF]  0.4
26. GREEFYSTHPH [LRRK2_Y1402]  0.385
27. NHYKICNLCAE [PTEN_Y68_Y68C]  0.376
28. ASELGYQFQAI [UROD_Y133_V134Q]  0.362
29. SRASYYRKGGC [ALK_Y1283_Y1278S]  0.34
